Test [1] has as its target recombinant human PCSK9 expressed in baculovirus (human, UniProt Q8NBP7 31-692, limits assumed). Nature of the test: PCSK9:EGFA FRET competition assay (inhibition of PCSK9 binding to biotinylated EGFA peptide). The text has this:
A fluorescence resonance energy transfer (FRET)-based assay was developed to determine the binding affinity and potency of PCSK9-binding adnectins. It was adapted from the general method described previously by Maio et al. (Miao, B. et al., Meth. Enzymol., 357:180-188 (2002); see also WO 2011/130354). The PCSK9:EGFA FRET assay measures the inhibition of PCSK9 binding to the LDLR epidermal growth factor precursor homology domain (EGFA domain), using recombinant human PCSK9 expressed in baculovirus and a synthetic 40-mer EGFA peptide (biotinylated). […] This assay uses a PCSK9 C-terminal domain binding mAb (mAb 4H5) labeled with Eu-chelate to provide FRET interaction with biotinylated EGFA through the streptavidin/allophycocyanin fluorophore complex. […] Thus, the biological activity of PCSK9 adnectin linked to ABD is at least as good as that of the unmodified PCSK9 adnectin.

The target in test [2] is T1, human serum albumin (human, UniProt P02768 25-609).
T1 construct: also called HSA; HuSA
The experiment in a line: SPR, affinity to HSA. For orientation: Surface plasmon resonance follows binding to a sensor surface in real time, without labels.

The target of another test is sol VEGFR2. Nature of the test: SPR, VEGFR2 immobilized on chip, ABD-(GS)3-C7FL-His6 (0.02 nM-300 nM) as analyte.
Another test addresses VEGFR2-Fc. The description is as above.
A further test deals with T2, mouse serum albumin (mouse, UniProt P07724 25-608).
T2 construct: also called MuSA
Nature of the test: SPR, serum albumin immobilized on chip, ABD-(GS)3-C7FL-His6 (0.02 nM-300 nM) as analyte. How it is done: (§1) The binding affinity of ABD-(GS)3-C7FL-His6 to human, mouse and Cynomolgus monkey serum albumin was also measured. In an SPR experiment, the serum albumins were immobilized on chip, and ABD-(GS)3-C7FL-His6 (0.02 nM-300 nM) was flowed as analyte.

Test [3] addresses Cynomolgus monkey serum albumin (given as RhSA in Table 3) (Cynomolgus monkey; RhSA (table)). Described as above. How it is done:
as §1

Test [4] has as its target T1, human serum albumin. The test is described as above. How it is done:
as §1

3 molecules from US20160152686A1 (Bristol-Myers Squibb, published 2016) can be followed below.

B1: unmodified (i.e., without ABD) PCSK9 adnectin (designed binder)
chain: VSDVPRDLEVVAATPTSLLISWVPPSDDYGYYRITYGETGGNSPVQEFTVPIGKGTATISGLKPGVDYTITVYAVEFPWPHAGYYHRPISINYRT
notes: also called Enhancer method: None
The term EC50 denotes the concentration that produces a half-maximal response. On to B1, for which the EC50 in test [1] is 2.6 nM.

B2: ABD-(GS)3-C7FL-His6 (anti-VEGFR2 adnectin linked to ABD at its N-terminus) (designed binder)
chain: MGQHDEAVDANSLAEAKVLANRELDKYGVSDYYKNLINNAKTVEGVKALIDEILAALPGSGSGSVSDVPRDLEVVAATPTSLLISWRHPHFPTRYYRITYGETGGNSPVQEFTVPLQPPTATISGLKPGVDYTITVYAVTDGRNGRLLSIPISINYRTGSGSHHHHHH
notes: also called ABD-C7FL; ATI-0001087
One may read the Kd as the constant that tells how readily two partners part at equilibrium. By koff is commonly meant the first-order rate constant of dissociation. What is called kon is the second-order rate constant of association. With B2, the Kd with human serum albumin [2] is 1.15 nM; with sol VEGFR2, 3.18 nM; with VEGFR2-Fc it was 3.31 nM; in the test with mouse serum albumin, 1 nM; in test [3] it was 1.82 nM; in the test with human serum albumin [4], 1.15 nM. For the same molecule, the koff came out at 0.000261 s⁻¹ in the test with sol VEGFR2; 0.000163 s⁻¹ with VEGFR2-Fc; 0.00033 s⁻¹ with mouse serum albumin; 0.000826 s⁻¹ in test [3]; 0.000505 s⁻¹ with human serum albumin [4]. The association rate constant (kon) with sol VEGFR2 was determined as 82000 M⁻¹ s⁻¹; with VEGFR2-Fc, 49300 M⁻¹ s⁻¹; with mouse serum albumin, 331000 M⁻¹ s⁻¹; in test [3] it was 455000 M⁻¹ s⁻¹; with human serum albumin [4] it was 439000 M⁻¹ s⁻¹.

B3: PCSK9 adnectin-ABD fusion protein (PCSK9 adnectin-(GS)3-ABD-His6) (designed binder)
chain: MGVSDVPRDLEVVAATPTSLLISWVPPSDDYGYYRITYGETGGNSPVQEFTVPIGKGTATISGLKPGVDYTITVYAVEFPWPHAGYYHRPISINYRTGSGSGSQHDEAVDANSLAEAKVLANRELDKYGVSDYYKNLINNAKTVEGVKALIDEILAALPHHHHHH
notes: Expressed in E. coli; also called PCSK9 Adn-(GS)3-ABD; 2013_E01-(GS)3-ABD (anti-PCSK9)
Regarding B3, in the test with human serum albumin [2], the Kd was determined as 12.4 nM. Moreover, the EC50 in test [1] is 0.3 nM.
